Source: patent US20230012273A1 (Boehringer Ingelheim, published 2023)

How the values were obtained:
[1] = molecular target: T1, human SIRPβL/SIRPβ1v3 extracellular domain + His-tag (NP_001129316.1) (human, UniProt Q5TFQ8 30-371); assay: SPR, Ab captured, ECD-His analyte
T1 construct: also called hSIRPβ1v3; HuSIRPβ1v3
Outline: (§1)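 Steps: chip deactivated with 1M ethanolamine HCl for 420 sec at 10 μl/min; anti-SIRPα antibody captured; two-fold serial dilutions of His-tagged SIRP extracellular domain injected 300 sec at 30 μl/min; dissociation monitored 600 sec. All in 1×HBS-EP+ running buffer.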

[2] = molecular target: T2, human SIRPγ extracellular domain + His-tag (NP_061026.2) (human, UniProt Q9P1W8 29-360); assay: SPR, Ab captured, ECD-His analyte
T2 construct: also called hSIRPγ; HuSIRPγ
T2 sequence (Q9P1W8 29-360): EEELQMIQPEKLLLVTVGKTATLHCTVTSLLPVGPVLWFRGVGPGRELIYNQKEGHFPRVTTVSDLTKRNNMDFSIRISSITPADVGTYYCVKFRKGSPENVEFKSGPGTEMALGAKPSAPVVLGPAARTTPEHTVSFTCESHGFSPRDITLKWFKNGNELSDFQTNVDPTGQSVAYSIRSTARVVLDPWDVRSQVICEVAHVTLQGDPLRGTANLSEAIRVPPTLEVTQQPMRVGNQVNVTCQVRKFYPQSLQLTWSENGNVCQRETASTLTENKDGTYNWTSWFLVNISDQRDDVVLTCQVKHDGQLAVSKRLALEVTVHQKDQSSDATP
Outline: as §1

[3] = molecular target: T3, human SIRPβ1 extracellular domain + His-tag (NP_006056.2) (human, UniProt O00241 30-371); assay: SPR, Ab captured, ECD-His analyte
T3 construct: also called hSIRPβ1; HuSIRPβ1
T3 sequence (O00241 other isoform, or with tags, fused parts or gaps): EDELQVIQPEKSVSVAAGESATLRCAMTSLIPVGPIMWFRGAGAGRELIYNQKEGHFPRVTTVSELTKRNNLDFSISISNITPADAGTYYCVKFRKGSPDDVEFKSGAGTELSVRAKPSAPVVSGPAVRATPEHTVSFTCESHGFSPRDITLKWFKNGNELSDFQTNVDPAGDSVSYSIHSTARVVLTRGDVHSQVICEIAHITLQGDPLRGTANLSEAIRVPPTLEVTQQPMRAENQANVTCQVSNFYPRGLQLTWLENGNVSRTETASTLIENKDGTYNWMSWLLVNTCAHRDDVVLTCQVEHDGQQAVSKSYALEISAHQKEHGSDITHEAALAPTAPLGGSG
Outline: as §1

[4] = molecular target: T4, full-length human SIRPγ (NP_061026.2) on cells (human, UniProt Q9P1W8 29-387); assay: flow cytometry, primary human CD3+ T cells
T4 construct: on CHO and Expi-CHO cells; endogenous on primary human CD3+ T cells; also called γ WT
T4 sequence (Q9P1W8 29-387): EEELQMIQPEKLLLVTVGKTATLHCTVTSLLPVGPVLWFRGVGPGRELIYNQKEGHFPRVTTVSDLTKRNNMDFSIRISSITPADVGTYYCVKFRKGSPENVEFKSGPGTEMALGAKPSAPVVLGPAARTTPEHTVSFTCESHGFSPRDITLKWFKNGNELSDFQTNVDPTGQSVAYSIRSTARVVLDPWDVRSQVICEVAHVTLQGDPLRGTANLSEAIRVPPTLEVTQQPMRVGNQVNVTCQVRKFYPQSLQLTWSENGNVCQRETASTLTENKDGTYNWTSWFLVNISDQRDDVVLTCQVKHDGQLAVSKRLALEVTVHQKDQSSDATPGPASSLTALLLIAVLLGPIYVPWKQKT
Procedure: Antibody binding to primary human T cells expressing endogenous SIRPγ is evaluated by flow cytometry. Human peripheral blood mononuclear cells (PBMCs) are blocked with donkey IgG and incubated on ice with increasing concentrations of antibody for 60 minutes, washed and stained with AF647-conjugated donkey F(ab′)₂ anti-human IgG secondary reagent. […] Cells are washed, fixed, and analyzed by flow cytometry. Median fluorescent intensity of CD3+ gated population is determined and used as a measure of antibody binding.

[5] = molecular target: T5, full-length human SIRPβL (NP_001129316.1) on cells (human, UniProt Q5TFQ8 30-398); assay: flow cytometry, U937 SIRPα KO cells
T5 construct: on U937 SIRPα KO cells and Expi-CHO cells; also called βL WT; SIRPβ1v3
T5 sequence (Q5TFQ8 30-398): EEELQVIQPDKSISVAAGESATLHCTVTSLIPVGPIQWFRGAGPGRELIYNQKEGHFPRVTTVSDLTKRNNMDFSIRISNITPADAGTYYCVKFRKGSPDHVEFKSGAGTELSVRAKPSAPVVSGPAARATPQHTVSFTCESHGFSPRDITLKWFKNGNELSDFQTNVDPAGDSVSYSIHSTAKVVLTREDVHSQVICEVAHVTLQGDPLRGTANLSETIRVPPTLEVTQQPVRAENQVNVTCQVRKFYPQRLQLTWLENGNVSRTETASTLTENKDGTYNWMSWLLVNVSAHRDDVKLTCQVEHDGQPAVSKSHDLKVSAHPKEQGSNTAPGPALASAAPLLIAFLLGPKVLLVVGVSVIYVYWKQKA
Procedure: Antibody binding to cells expressing full-length human SIRPβ1 (NP_006056.2) and SIRPβL (NP_001129316.1) is evaluated by flow cytometry. SIRPβ1- or SIRPβL-expressing U937^{SIRPα KO} cells are blocked with donkey IgG and incubated on ice with increasing concentrations of antibodies for 60 minutes, washed and stained with AF647-conjugated donkey F(ab′)₂ anti-human IgG secondary reagent. Cells are washed, fixed, and analyzed by flow cytometry. Median fluorescent intensity is determined and used as a measure of antibody binding.

[6] = molecular target: T6, mouse SIRPα extracellular domain + His-tag (NP_031573) (mouse, UniProt P97797 32-373); assay: SPR, Ab captured, ECD-His analyte
T6 chain: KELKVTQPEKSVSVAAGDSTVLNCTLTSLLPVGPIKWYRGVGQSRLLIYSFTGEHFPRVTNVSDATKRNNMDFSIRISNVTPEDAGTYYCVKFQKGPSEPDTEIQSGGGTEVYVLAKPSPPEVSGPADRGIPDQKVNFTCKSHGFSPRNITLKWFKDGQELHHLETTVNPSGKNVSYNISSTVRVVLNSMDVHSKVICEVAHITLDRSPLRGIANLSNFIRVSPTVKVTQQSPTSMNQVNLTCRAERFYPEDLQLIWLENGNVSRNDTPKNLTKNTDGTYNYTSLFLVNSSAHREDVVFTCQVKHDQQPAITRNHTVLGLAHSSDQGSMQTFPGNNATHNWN
Outline: as §1

[7] = molecular target: T7, cynomolgus SIRPβ1v3 extracellular domain + His-tag (XP_005568593) (cynomolgus monkey); assay: SPR, Ab captured, ECD-His analyte
T7 construct: also called Cyno SIRPβ1v3; cynoSIRPβ1v3
T7 chain: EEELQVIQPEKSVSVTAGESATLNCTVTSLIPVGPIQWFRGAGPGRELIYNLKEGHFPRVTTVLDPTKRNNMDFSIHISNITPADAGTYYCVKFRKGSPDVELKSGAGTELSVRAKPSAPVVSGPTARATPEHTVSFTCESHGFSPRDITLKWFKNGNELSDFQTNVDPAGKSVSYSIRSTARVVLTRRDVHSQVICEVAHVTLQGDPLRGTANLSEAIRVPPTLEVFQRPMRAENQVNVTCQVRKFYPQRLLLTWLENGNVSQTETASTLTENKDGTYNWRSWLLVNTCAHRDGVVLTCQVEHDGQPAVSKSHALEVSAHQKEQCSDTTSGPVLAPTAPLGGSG
Outline: as §1

[8] = molecular target: T8, cynomolgus SIRPα extracellular domain + His-tag (EGM_02252) (cynomolgus monkey); assay: SPR, Ab captured, ECD-His analyte
T8 construct: also called CySIRPα EGM_02252; cynoSIRPα
T8 chain: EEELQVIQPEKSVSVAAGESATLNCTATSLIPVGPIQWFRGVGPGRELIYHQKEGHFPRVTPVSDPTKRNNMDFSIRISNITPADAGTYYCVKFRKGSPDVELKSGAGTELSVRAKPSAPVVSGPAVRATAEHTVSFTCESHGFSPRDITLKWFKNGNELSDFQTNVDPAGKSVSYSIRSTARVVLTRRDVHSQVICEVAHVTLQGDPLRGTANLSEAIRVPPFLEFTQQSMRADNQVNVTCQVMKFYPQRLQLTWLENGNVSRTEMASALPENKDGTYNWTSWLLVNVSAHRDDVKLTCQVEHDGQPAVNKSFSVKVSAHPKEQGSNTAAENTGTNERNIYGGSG
Outline: as §1

[9] = molecular target: T9, cynomolgus SIRPα extracellular domain + His-tag (NP_001271679) (cynomolgus monkey); assay: SPR, Ab captured, ECD-His analyte
T9 construct: also called CySIRPα NP_001271679; cynoSIRPα
T9 chain: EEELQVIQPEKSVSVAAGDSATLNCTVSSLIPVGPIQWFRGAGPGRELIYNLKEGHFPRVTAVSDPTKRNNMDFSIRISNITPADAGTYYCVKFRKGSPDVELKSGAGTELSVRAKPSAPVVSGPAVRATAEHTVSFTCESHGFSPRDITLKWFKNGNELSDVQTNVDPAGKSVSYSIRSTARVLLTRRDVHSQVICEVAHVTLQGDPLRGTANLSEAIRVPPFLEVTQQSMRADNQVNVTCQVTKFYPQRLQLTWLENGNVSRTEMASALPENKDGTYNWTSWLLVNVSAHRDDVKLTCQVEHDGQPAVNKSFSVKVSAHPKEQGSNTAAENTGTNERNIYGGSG
Outline: as §1

[10] = molecular target: T10, cynomolgus SIRPα (NP_001271679) extracellular domain + His-tag (cynomolgus monkey); assay: SPR, antibody captured, ECD-His analyte
T10 construct: SPR analyte; also called CySIRPα NP_001271679; cynoSIRPα; not shown: His-tag
T10 chain: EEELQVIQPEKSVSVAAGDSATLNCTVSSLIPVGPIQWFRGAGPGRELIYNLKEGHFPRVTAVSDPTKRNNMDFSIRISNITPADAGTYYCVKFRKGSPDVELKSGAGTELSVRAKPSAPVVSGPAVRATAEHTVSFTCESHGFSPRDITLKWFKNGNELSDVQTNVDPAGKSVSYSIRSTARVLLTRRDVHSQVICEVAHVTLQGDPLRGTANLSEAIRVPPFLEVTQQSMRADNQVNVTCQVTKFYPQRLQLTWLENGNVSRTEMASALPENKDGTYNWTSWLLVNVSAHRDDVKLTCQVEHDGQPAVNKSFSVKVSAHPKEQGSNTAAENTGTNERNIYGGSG
Procedure: (§2) The binding affinity of anti-SIRPα antibodies to the various SIRPα analytes is determined by surface plasmon resonance (SPR) using a ProteOn XPR36 (Bio-Rad). The running buffer for this experiment and all dilutions (except where stated) are done in 1×HBS-EP+. […] The sensorchip is deactivated with 1M ethanolamine HCl for 420 sec at a flowrate of 10 μl/min.
(§3) The analyte is injected over the captured antibody for 300 sec at a flowrate of 30 μl/min. The dissociation is done for 600 sec. Two-fold serial dilutions of each SIRP protein (Extracellular Domain+His-Tag) are injected as analyte with the highest concentrations indicated in table 36 below.

[11] = molecular target: T11, cynomolgus SIRPβ1v3 (XP_005568593) extracellular domain + His-tag (cynomolgus monkey); assay: SPR, antibody captured, ECD-His analyte
T11 construct: SPR analyte; also called Cyno SIRPβ1v3 XP_005568593; cynoSIRPβ1v3; not shown: His-tag
T11 chain: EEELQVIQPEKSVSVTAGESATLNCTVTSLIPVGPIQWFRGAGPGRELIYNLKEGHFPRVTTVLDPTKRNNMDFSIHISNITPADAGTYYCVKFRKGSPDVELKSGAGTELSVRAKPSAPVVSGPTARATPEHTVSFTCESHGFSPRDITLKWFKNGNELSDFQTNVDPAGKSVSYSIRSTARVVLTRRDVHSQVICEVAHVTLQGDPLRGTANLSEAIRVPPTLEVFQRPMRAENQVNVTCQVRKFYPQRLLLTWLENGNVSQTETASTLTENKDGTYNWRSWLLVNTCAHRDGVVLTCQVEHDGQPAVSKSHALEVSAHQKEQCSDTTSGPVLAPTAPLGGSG
Procedure: as §2, §3

[12] = molecular target: T12, cynomolgus SIRPα (EGM_02252) extracellular domain + His-tag (cynomolgus monkey); assay: SPR
T12 construct: SPR analyte; also called CySIRPα EGM_02252; cynoSIRPα; not shown: His-tag
T12 chain: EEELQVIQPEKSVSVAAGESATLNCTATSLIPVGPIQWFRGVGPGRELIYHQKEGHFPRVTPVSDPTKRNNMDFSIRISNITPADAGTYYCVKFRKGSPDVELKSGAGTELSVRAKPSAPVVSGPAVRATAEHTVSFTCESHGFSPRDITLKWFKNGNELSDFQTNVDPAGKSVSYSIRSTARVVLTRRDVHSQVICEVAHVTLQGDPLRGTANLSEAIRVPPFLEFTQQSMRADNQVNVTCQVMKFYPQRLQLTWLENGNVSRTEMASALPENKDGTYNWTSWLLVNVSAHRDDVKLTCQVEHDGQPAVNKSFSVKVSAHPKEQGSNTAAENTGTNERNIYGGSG
Procedure: as §2, §3

[13] = molecular target: T13, cynomolgus SIRPβ1 (XP_005568598) extracellular domain + His-tag (cynomolgus monkey); assay: SPR
T13 construct: SPR analyte; also called Cyno SIRPβ1 XP_005568598; cynoSIRPβ1; not shown: His-tag
T13 chain: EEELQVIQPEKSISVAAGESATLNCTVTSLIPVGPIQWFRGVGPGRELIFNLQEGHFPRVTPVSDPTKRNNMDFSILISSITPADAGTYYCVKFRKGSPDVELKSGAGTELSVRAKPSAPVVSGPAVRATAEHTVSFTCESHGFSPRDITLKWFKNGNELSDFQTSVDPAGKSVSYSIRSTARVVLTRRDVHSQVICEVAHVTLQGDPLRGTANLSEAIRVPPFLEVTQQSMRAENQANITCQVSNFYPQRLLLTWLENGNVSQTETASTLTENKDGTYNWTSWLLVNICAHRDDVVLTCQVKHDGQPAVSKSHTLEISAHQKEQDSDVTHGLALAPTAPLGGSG
Procedure: as §2, §3

[14] = molecular target: T14, cynomolgus SIRPγ (XP_005568591) extracellular domain + His-tag (cynomolgus monkey, UniProt Q9P1W8 29-359 (human entry)); assay: SPR
T14 construct: SPR analyte; also called Cyno SIRPγ XP_005568591; cynoSIRPγ; not shown: His-tag
T14 chain: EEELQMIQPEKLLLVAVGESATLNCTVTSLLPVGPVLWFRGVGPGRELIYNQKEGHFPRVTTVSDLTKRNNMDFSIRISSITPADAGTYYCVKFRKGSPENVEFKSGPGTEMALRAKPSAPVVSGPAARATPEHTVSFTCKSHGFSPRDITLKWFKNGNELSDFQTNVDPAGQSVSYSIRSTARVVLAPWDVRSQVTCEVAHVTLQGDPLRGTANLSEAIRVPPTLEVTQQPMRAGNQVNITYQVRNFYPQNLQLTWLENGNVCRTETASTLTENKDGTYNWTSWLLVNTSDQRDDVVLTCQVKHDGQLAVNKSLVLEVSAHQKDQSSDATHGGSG
Procedure: as §2, §3

[15] = molecular target: T15, SIRPαV2 domain 1 (amino acids 31-148) with N-terminal GST tag (human, UniProt Q5TFQ8 30-148); assay: crystal structure
T15 construct: also called domain 1 of the extracellular domain of human SIRPα-V2
T15 sequence (Q5TFQ8 other isoform, or with tags, fused parts or gaps): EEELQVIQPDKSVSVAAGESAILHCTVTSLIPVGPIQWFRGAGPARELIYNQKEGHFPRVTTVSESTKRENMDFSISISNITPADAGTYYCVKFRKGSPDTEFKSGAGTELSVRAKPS
Procedure: Protein was expressed in Origami B(DE3) cells and purified using standard protocols for GST-tagged proteins. Fractions were analyzed by SDS-PAGE and fractions containing the desired protein were pooled and concentrated to 24 mg/ml in 25 mM HEPES; 100 mM NaCl; 5% Glycerin; pH 7,0.

T1 sequence (Q5TFQ8 other isoform, or with tags, fused parts or gaps): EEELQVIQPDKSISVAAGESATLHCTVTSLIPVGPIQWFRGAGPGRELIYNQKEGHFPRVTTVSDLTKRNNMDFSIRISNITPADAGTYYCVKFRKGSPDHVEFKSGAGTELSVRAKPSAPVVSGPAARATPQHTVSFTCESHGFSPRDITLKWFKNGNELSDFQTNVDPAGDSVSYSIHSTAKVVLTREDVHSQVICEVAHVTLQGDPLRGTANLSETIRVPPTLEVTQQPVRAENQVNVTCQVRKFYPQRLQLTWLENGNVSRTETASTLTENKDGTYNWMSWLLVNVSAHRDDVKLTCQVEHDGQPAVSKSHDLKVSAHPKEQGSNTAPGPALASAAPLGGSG

B1: Antibody F (antibody, human IgG4 S228P, kappa)
heavy: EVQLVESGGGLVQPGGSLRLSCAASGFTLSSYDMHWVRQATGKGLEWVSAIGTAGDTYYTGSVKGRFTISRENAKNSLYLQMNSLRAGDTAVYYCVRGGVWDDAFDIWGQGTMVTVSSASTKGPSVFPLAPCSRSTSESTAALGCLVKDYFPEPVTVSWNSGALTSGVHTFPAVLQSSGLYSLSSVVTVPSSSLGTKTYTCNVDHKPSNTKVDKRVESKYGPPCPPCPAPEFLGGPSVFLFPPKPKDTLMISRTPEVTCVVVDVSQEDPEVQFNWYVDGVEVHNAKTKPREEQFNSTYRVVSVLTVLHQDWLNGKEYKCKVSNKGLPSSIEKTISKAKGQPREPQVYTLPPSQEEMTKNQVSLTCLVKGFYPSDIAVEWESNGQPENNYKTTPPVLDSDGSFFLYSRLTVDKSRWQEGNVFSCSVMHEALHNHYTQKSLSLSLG
light: DIQMTQSPSSLSASVGDRVTITCRASQDINNYLAWFQQKPGKAPKSLIYTASSLHSGVPSKFSGSGSGTDFTLTISSLQPEDFATYYCQQYVSYPYTFGQGTKLEIKRTVAAPSVFIFPPSDEQLKSGTASVVCLLNNFYPREAKVQWKVDNALQSGNSQESVTEQDSKDSTYSLSSTLTLSKADYEKHKVYACEVTHQGLSSPVTKSFNRGEC
- binding result [1]: no binding (tested: 100 nM)
- binding result [2]: no binding (tested: 1000 nM)
- Kd [3]: 84 nM
- binding result [4]: no binding
- binding result [5]: no binding
- binding result [6]: no binding
- Kd [7]: 227 nM
- Kd [8]: 230 nM
- Kd [9]: 506 nM

B2: Antibody E16 (antibody, human IgG1, kappa, L234A L235A, V domains shown)
VH: QVQLQESGPGLVRPSETLSLTCTVSGGSIRNYYWSWIRQPPGKGLEWIGFIYYNGRTFYNPSLKSRVTISLDTSKNQFSLKMTSVTAADTAVYYCARVRAYSGIGLDGTDVWGQGTTVTVSS
VL: DIVMTQSPLSLPVTPGEPASISCKSSQSLLYSNAYNYLDWYLQRPGQSPQLLIYLGSNRASGVPDRFSGSGSGTDFTLKISRVEAEDVGVYYCMQALQTPLTFGGGTKVEIKR
- Kd [10]: 50.3 nM
- Kd [11]: 30.3 nM
- binding result [12]: no binding (tested: 1000 nM)
- binding result [13]: no binding (tested: 1000 nM)
- binding result [14]: no binding (tested: 1000 nM)

B3: Fab fragment of Antibody A (Fab, V domains shown)
VH: EVQLVESGGGLVQPGGSLRLSCAASGFTLSSYDMHWVRQATGKGLEWVSAIGTAGDTYYTGSVKGRFTISRENAKNSLYLQMNSLRAGDTAVYYCVRGGVWDDAFDIWGQGTMVTVSS
VL: DIQMTQSPSSLSASVGDRVTITCRASQDINNYLAWFQQKPGKAPKSLIYTASSLHSGVPSKFSGSGSGTDFTLTISSLQPEDFATYYCQQYVSYPYTFGQGTKLEIK
notes: Fab; also called Fab of Antibody A
- binding result [15]: binds
